Experimental data published in patent US20250197496A1 (EVOLVELMMUNE THERAPEUTICS, published 2025).
Where a chain is given by its changes, count along the chain named.

T1: Human ULBP2 (recombinant) (human, UniProt Q9BZM5 26-217)
T1 construct: bought (R&D Systems) as ULBP2-Fc or ULBP2-His; also called recombinant ULBP2
T1 sequence: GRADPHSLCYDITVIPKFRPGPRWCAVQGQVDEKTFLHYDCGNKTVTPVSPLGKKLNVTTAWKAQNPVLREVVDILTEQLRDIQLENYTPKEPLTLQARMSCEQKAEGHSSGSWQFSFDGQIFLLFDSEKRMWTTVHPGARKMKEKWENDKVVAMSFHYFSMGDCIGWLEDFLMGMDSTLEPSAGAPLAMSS

B1: ULBP2xCD3 bispecific CD58 fusion containing CD3 variant CD3-01 (bispecific antibody, V domains shown)
VH: EVQLLESGGGLVQPGGSLKLSCAASGFTFNTYAMNWVRKAPGKGLEWVARIRSKYNNYATYYADSVKDRFTISRDDSKNTAYLQMNNLKTEDTAVYYCVRHGNFGNSYVSWFAYWGQGTLVTVSS
VL: ELVVTQEPSLTVSPGGTVTLTCRSSTGAVTTSNYANWVQDKPGQAPRGLIGGTNKRAPGTPARFSGSLLGGKAALTLSGVQPEDEAEYYCALWYSNLWVFGGGTKLTVL
B2: ULBP2xCD3 bispecific CD58 fusion containing CD3 variant CD3-A9 (bispecific antibody, V domains shown)
VH: B1 VH with N103S
VL: B1 VL with N96Q
B3: ULBP2xCD3 bispecific CD58 fusion containing CD3 variant CD3-A8 (bispecific antibody, V domains shown)
VH: B1 VH with R50K, N106D
VL: B1 VL with N96Q
B4: ULBP2xCD3 bispecific CD58 fusion containing CD3 variant CD3-A6 (bispecific antibody, V domains shown)
VH: B1 VH with T31D
VL: B1 VL
B5: ULBP2xCD3 bispecific CD58 fusion containing CD3 variant CD3-A5 (bispecific antibody, V domains shown)
VH: B1 VH with N106D, S107D
VL: B1 VL with N96Q
B6: ULBP2xCD3 bispecific CD58 fusion containing CD3 variant CD3-A2 (bispecific antibody, V domains shown)
VH: B1 VH
VL: B1 VL with G52D
B7: EIP0504 (bispecific antibody, V domains shown)
VH 1: B1 VH
VL 1: B1 VL
VH 2: EVQLVQSGAEVKKPGESLKISCKGSGYAFSTSWMNWVRQMPGKGLEWMGRIYPGDGDTNYNGNFKGQVTISADKSISTAYLQWSSLKASDTAMYYCARGGELRLEAMDSWGQGTLVTVSS
VL 2: EIVMTQSPATLSLSPGERITLSCSASSSIHSNYLHWYQQKPGQAPRLLIYRTSNLASGIPARFSGSGSGTDFTLTISSLQPEDFAVYYCQQGFSIPFTFGQGTKLEIK
notes: also called ULBP2(A06)-SP34; EV104.2:CD3.1
B8: EIP0373 (bispecific antibody)
heavy 1: EVQLLESGGGLVQPGGSLKLSCAASGFTFNTYAMNWVRKAPGKGLEWVARIRSKYNNYATYYADSVKDRFTISRDDSKNTAYLQMNNLKTEDTAVYYCVRHGNFGNSYVSWFAYWGQGTLVTVSSASTKGPSVFPLAPSSKSTSGGTAALGCLVKDYFPEPVTVSWNSGALTSGVHTFPACLQSSGLYSLSSVVTVPSSSLGTQTYICNVNHKPSNTKVDKKVEPKSSDKTHTCPPCPAPEAAGAPSVFLFPPKPKDTLMISRTPEVTCVVVDVSHEDPEVKFNWYVDGVEVHNAKTKPREEQYNSTYRVVSVLTVLHQDWLNGKEYKCKVSNKALPAPIEKTISKAKGQPREPQVCTLPPSREEMTKNQVSLSCAVKGFYPSDIAVEWESNGQPENNYKTTPPVLDSDGSFFLVSKLTVDKSRWQQGNVFSCSVMHEALHNHYTQKSLSLSPG
light 1: ELVVTQEPSLTVSPGGTVTLTCRSSTGAVTTSNYANWVQDKPGQAPRGLIGGTNKRAPGTPARFSGSLLGGKAALTLSGVQPEDEAEYYCALWYSNLWVFGGGTKLTVLGQPKANPTVTLFPPSSEELQANKADLVCLISDFYPGAVTVAWKADGSPVKAGVETCKPSKQSNNKYAASSYLSLTPEQWKSHRSYSCQVTHEGSTVEKTVAPTESS
heavy 2: not shown
light 2: not shown
notes: IgG1 bispecific, pairing set D; also called EGFR(Cetuximab)-SP34; V373
B9: EIP0506 (bispecific antibody, human IgG1, kappa, lambda)
heavy 1: B8 heavy 1
light 1: B8 light 1
heavy 2: QVQLVQSGAEVKKPGSSVKVSCKASGGTFSNYWMHWVRDAPGQGLEWMGATYRGHSDTYYNQKFKGRVTITADKSTSTAYMELSSLRSEDTAVYYCARGAIYDGYDVLDNWGQGTLVTVSSASTKGPSVFPLAPSSKSTSGGTAALGCLVDDYFPEPVTVSWNSGALTSGVHTFPAVLQSSGLYSLSSVVTVPSSSLGTQTYICNVNHKPSNTKVDKKVEPKSCDKTHTCPPCPAPEAAGAPSVFLFPPKPKDTLMISRTPEVTCVVVDVSHEDPEVKFNWYVDGVEVHNAKTKPREEQYNSTYRVVSVLTVLHQDWLNGKEYKCKVSNKALPAPIEKTISKAKGQPREPQVYTLPPCREEMTKNQVSLWCLVKGFYPSDIAVEWESNGQPENNYKTTPPVLDSDGSFFLYSKLTVDKSRWQQGNVFSCSVMHEALHNHYTQKSLSLSPG
light 2: not shown
notes: IgG1 bispecific, pairing set D; also called BCMA(Belantamab)-SP34; V506

The binders below were run against T2, human CD3 epsilon/delta heterodimer, biotin labeled (human, UniProt P04234 22-105, biotin labeled) (assay: SPR, biotinylated CD3e/d on SA chip;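 further: analytes injected over immobilized CD3 heterodimer, association 60-120 s and dissociation 120-420 s, rate and affinity constants obtained by fitting sensorgrams to a 1:1 binding model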).
T2 construct: bought (Acro Biosystems); also called Human CD3e/d

Binder | Kd [nM] | koff [s⁻¹] | kon [M⁻¹ s⁻¹]
B1 | 4.7 | 0.00819 | 1.76e+06
B2 | 155 | 0.101 | 654000
B3 | 147 | 0.0635 | 432000
B4 | 75 | 0.0479 | 640000
B5 | 354 | 0.0245 | 69200
B6 | 102 | 0.0263 | 257000

Each binder was assayed against T3, cynomolgus CD3 epsilon/delta heterodimer, biotin labeled (cynomolgus, UniProt Q95LI8 22-105, biotin labeled) (assay: SPR, biotinylated CD3e/d on SA chip;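 further: analytes injected over immobilized CD3 heterodimer, association 60-120 s and dissociation 120-420 s, rate and affinity constants obtained by fitting sensorgrams to a 1:1 binding model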).
T3 construct: bought (Acro Biosystems); also called Cyno CD3e/d
T3 sequence (chain, as listed by the source mutant, chain 1 of 2): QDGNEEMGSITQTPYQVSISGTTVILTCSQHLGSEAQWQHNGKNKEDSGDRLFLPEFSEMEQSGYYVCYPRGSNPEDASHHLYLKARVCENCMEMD
T3 sequence (Q95LI8 22-105, stated change not applied, chain 2 of 2): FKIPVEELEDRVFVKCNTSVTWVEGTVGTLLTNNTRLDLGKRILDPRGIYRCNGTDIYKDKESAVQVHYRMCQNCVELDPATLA

Binder | Kd [nM] | koff [s⁻¹] | kon [M⁻¹ s⁻¹]
B1 | 3.2 | 0.00515 | 1.6e+06
B2 | 212 | 0.0718 | 338000
B3 | 137 | 0.0614 | 448000
B4 | 75 | 0.0418 | 558000
B5 | 368 | 0.0337 | 91700
B6 | 89 | 0.0227 | 256000

These binders were tested against T4, human CD3 epsilon (recombinant, plate-coated) (human, UniProt P07766 23-126) (assay: sandwich ELISA, plate coated with CD3ε, luminescence (RLU)).
T4 construct: also called CD3ε; Hu CD3 epsilon

Binder | EC50 (read off the curve) [µg/mL]
B7 | ~0.4
B8 | ~0.3
B9 | ~0.5

What follows are binders tested against EGFR (UniProt P00533 25-645, limits assumed) (assay: sandwich ELISA, plate coated with antigen (legend paragraph 82 names no antigen; EGFR taken as the antigen of the cetuximab arm), luminescence (RLU)).

Binder | EC50 (read off the curve) [µg/mL]
B8 | ~0.3

These binders were tested against T1, Human ULBP2 (recombinant) (assay: sandwich ELISA, plate coated with antigen (legend paragraph 82 names no antigen; ULBP2 taken as the antigen of this antibody's target arm), luminescence (RLU)).

Binder | EC50 (read off the curve) [µg/mL]
B7 | ~0.6
